Assay results taken from patent publication US20080058263A1 (published 2008).

T1: VEGFR-3-Fc (UniProt P35916 25-328)
T1 construct: domain: first three Ig domains; conditioned supernatant of 293T cells; also called VEGFR-3-Fc fusion protein; not shown: Fc fragment of the pIg vector
T1 sequence (looked up): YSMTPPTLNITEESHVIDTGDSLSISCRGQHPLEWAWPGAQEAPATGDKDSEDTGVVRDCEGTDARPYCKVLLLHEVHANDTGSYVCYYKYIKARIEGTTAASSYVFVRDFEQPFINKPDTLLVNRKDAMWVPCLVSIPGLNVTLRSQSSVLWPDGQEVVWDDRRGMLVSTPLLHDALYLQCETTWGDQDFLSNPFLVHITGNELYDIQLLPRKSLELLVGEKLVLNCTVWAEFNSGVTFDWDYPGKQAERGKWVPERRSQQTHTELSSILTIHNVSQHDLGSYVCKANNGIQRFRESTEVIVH


How the values were obtained:
Test in all cases: receptor-Fc IP
VEGFR-1-Fc = biological target: T2, VEGFR-1-Fc (UniProt P17948 27-338)
T2 construct: domain: first three Ig domains; expressed in Drosophila S2 cells, purified on Protein A sepharose; also called VEGFR-1-Fc fusion protein; not shown: Fc fragment from the Signal-pIgPlus vector
T2 sequence (P17948 27-338): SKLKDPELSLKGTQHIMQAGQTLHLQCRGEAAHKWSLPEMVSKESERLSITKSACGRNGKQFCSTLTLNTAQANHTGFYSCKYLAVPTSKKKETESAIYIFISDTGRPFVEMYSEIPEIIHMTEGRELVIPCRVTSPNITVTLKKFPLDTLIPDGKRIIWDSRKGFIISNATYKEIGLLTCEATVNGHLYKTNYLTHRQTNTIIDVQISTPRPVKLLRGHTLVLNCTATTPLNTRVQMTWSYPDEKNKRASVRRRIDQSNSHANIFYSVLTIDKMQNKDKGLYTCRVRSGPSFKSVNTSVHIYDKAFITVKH
Method in brief: (§1)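 Binding of ligand from sample supernatant measured by pentahistidine-antibody immunoprecipitation. IP mix: PBS with 1.5% BSA, 0.06% Tween 20, 3 μg/ml heparin and 400 ng/ml fusion protein, added 1:2 to sample supernatant.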

VEGFR-2-Fc = biological target: T3, VEGFR-2-Fc (UniProt P35968 20-322)
T3 construct: domain: first 3 Ig domains; conditioned supernatant of 293T cells; also called VEGFR-2-Fc fusion protein; not shown: Fc fragment of the pIg vector
T3 sequence (P35968 20-322): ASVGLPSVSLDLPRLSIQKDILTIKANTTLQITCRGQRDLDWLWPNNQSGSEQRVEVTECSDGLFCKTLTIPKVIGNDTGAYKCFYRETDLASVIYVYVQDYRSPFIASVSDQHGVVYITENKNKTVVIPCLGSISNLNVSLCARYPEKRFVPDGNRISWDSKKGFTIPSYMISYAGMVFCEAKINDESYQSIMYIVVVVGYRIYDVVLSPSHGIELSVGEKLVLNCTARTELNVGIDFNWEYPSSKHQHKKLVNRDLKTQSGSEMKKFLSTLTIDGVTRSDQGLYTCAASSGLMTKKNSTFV
Method in brief: as §1

VEGFR-3-Fc = biological target: T1, VEGFR-3-Fc
Method in brief: as §1

| binding result (VEGFR-1-Fc) | binding result (VEGFR-2-Fc) | binding result (VEGFR-3-Fc) | Binder |
| --- | --- | --- | --- |
| no binding | no binding | no binding | 23-6 (ligand) AHYNTEILKSIDNEWRKTQCMPREVCIDVGKEYPDEIEYIFKPPCVSVYRCGGCCNDEGLECMNTSTSYLSKTLFEIKPHQGQHIGEMSFANHTSCRCMSKLD |
| no binding | no binding | no binding | 21-2 (ligand) AHYNTEILKSIDNEWRKTQCMPREVCIDVGKEYPDEIEYIFKPSCVPLMRCGGCCNDEGLECMNTSTSYLSKTLFEIKPHQGQHIGEMSFLQHNKCECRPKKD |
| no binding | no binding | no binding | 21-6 (ligand) AHYNTEILKSIDNEWRKTQCMPREVCIDVGKEYPDEIEYIFKPSCVPLMRCGGCCNDEGLECMNTSTSYLSKTLFEIKPHQGQHIGEMSFANHTSCRCMSKLD |
| binds | binds | no binding | 12-3 (ligand) GQNHHEVVKFMDVYQRSYCHPIETLVDIFQEFGVATNTFFKPPCVSVYRCGGCCNSEGLQCVPTEESNITMQIMRIKPHQGQHIGEMSFLQHNKCECRPKKDLVFEQKLISEEDLNSAVDHHHHHH |
| binds | binds | binds | 12-7 (ligand, also called super-VEGF) GQNHHEVVKFMDVYQRSYCHPIETLVDIFQEFGVATNTFFKPPCVSVYRCGGCCNSEGLQCVPTEESNITMQIMRIKPHQGQHIGEMSFANHTSCRCMSKLDLVFEQKLISEEDLNSAVDHHHHHH |
| binds | no binding | binds | 12-9 (ligand) GQNHHEVVKFMDVYQRSYCHPIETLVDIFQEFGVATNTFFKPPCVSVYRCGGCCNDEGLECVPTEESNITMQIMRITVPLSQGPKPVTISFLQHNKCECRPKKDLVFEQKLISEEDLNSAVDHHHHHH |
| binds | binds | binds | 12-11 (ligand, also called super-VEGF) GQNHHEVVKFMDVYQRSYCHPIETLVDIFQEFGVATNTFFKPPCVSVYRCGGCCNSEGLQCVPTEESNITMQIMRITVPLSQGPKPVTISFLQHNKCECRPKKDLVFEQKLISEEDLNSAVDHHHHHH |
| no binding | binds | binds | 12-15 (ligand) GQNHHEVVKFMDVYQRSYCHPIETLVDIFQEFGVATNTFFKPPCVSVYRCGGCCNSEGLQCVPTEESNITMQIMRITVPLSQGPKPVTISFANHTSCRCMSKLDLVFEQKLISEEDLNSAVDHHHHHH |
| binds | no binding | binds | 12-13 (ligand, clone acquired a point mutation, Asp to Asn at the last C-terminal amino acid of the hybrid) GQNHHEVVKFMDVYQRSYCHPIETLVDIFQEFGVATNTFFKPPCVSVYRCGGCCNDEGLECVPTEESNITMQIMRITVPLSQGPKPVTISFANHTSCRCMSKLNLVFEQKLISEEDLNSAVDHHHHHH |
| no binding | no binding | no binding | 61-15 (ligand) GQNHHEVVKFMDVYQRSYCHPREVCIDVGKEYPDEIEYIFKPSCVPLMRCGGCCNSEGLQCVPTEESNITMQIMRITVPLSQGPKPVTISFANHTSCRCMSKLD |
| no binding | no binding | no binding | 61-11 (ligand) GQNHHEVVKFMDVYQRSYCHPREVCIDVGKEYPDEIEYIFKPSCVPLMRCGGCCNSEGLQCVPTEESNITMQIMRITVPLSQGPKPVTISFLQHNKCECRPKKD |
| no binding | no binding | no binding | 63-11 (ligand) GQNHHEVVKFMDVYQRSYCHPREVCIDVGKEYPDEIEYIFKPPCVSVYRCGGCCNSEGLQCVPTEESNITMQIMRITVPLSQGPKPVTISFLQHNKCECRPKKD |
| no binding | no binding | no binding | 64-15 (ligand) GQNHHEVVKFMDVYQRSYCHPREVCIDVGKEFGVATNTFFKPSCVPLMRCGGCCNSEGLQCVPTEESNITMQIMRITVPLSQGPKPVTISFANHTSCRCMSKLD |
| no binding | no binding | no binding | 63-13 (ligand) GQNHHEVVKFMDVYQRSYCHPREVCIDVGKEYPDEIEYIFKPPCVSVYRCGGCCNDEGLECVPTEESNITMQIMRITVPLSQGPKPVTISFANHTSCRCMSKLD |
| binds | no binding | no binding | 11-13 (ligand) GQNHHEVVKFMDVYQRSYCHPIETLVDIFQEYPDEIEYIFKPSCVPLMRCGGCCNDEGLECVPTEESNITMQIMRITVPLSQGPKPVTISFANHTSCRCMSKLD |
| no binding | no binding | no binding | 41-13 (ligand) AHYNTEILKFMDVYQRSYCHPREVCIDVGKEYPDEIEYIFKPSCVPLMRCGGCCNDEGLECVPTEESNITMQIMRITVPLSQGPKPVTISFANHTSCRCMSKLD |
| no binding | no binding | no binding | 61-9 (ligand) GQNHHEVVKFMDVYQRSYCHPREVCIDVGKEYPDEIEYIFKPSCVPLMRCGGCCNDEGLECVPTEESNITMQIMRITVPLSQGPKPVTISFLQHNKCECRPKKD |
| binds | no binding | no binding | 13-15 (ligand) GQNHHEVVKFMDVYQRSYCHPIETLVDIFQEYPDEIEYIFKPPCVSVYRCGGCCNSEGLQCVPTEESNITMQIMRITVPLSQGPKPVTISFANHTSCRCMSKLD |
| no binding | no binding | no binding | 62-15 (ligand) GQNHHEVVKFMDVYQRSYCHPREVCIDVGKEFGVATNTFFKPPCVSVYRCGGCCNSEGLQCVPTEESNITMQIMRITVPLSQGPKPVTISFANHTSCRCMSKLD |
| no binding | no binding | no binding | 63-15 (ligand) GQNHHEVVKFMDVYQRSYCHPREVCIDVGKEYPDEIEYIFKPPCVSVYRCGGCCNSEGLQCVPTEESNITMQIMRITVPLSQGPKPVTISFANHTSCRCMSKLD |
| no binding | no binding | no binding | 43-15 (ligand) AHYNTEILKFMDVYQRSYCHPREVCIDVGKEYPDEIEYIFKPPCVSVYRCGGCCNSEGLQCVPTEESNITMQIMRITVPLSQGPKPVTISFANHTSCRCMSKLD |
| no binding | no binding | no binding | 64-13 (ligand) GQNHHEVVKFMDVYQRSYCHPREVCIDVGKEFGVATNTFFKPSCVPLMRCGGCCNDEGLECVPTEESNITMQIMRITVPLSQGPKPVTISFANHTSCRCMSKLD |
| binds | binds | no binding | 11-15 (ligand) GQNHHEVVKFMDVYQRSYCHPIETLVDIFQEYPDEIEYIFKPSCVPLMRCGGCCNSEGLQCVPTEESNITMQIMRITVPLSQGPKPVTISFANHTSCRCMSKLD |
| no binding | no binding | no binding | 41-15 (ligand) AHYNTEILKFMDVYQRSYCHPREVCIDVGKEYPDEIEYIFKPSCVPLMRCGGCCNSEGLQCVPTEESNITMQIMRITVPLSQGPKPVTISFANHTSCRCMSKLD |
| binds | binds | no binding | 11-11 (ligand) GQNHHEVVKFMDVYQRSYCHPIETLVDIFQEYPDEIEYIFKPSCVPLMRCGGCCNSEGLQCVPTEESNITMQIMRITVPLSQGPKPVTISFLQHNKCECRPKKD |
